For 95 substances, abundance fitness results are on record in the Human Domainome abundance scans (Beltran et al. 2025).

± gives the uncertainty stated by the source.

The data set can be described thus: abundance fitness (aPCA) (normalised: wild type 0, dead -1); higher = more abundant; growth selection in yeast, the domain comes from the species named. The conditions noted are these: Homo sapiens.
The substance “Transcriptional activator Myb Q195V, P10242” yielded an abundance fitness of 0.043 ± 0.081.
For “Transcriptional activator Myb Q195W, P10242”, the abundance fitness is -0.282 ± 0.14.
Next, “Transcriptional activator Myb Q195Y, P10242”: -0.26 ± 0.22; “Transcriptional activator Myb Q200A, P10242”: 0.011 ± 0.068; “Transcriptional activator Myb Q200C, P10242”: -0.18 ± 0.11.
“Transcriptional activator Myb Q200D, P10242” had an abundance fitness of -0.139 ± 0.11.
Substance “Transcriptional activator Myb Q200E, P10242” returned an abundance fitness of -0.008 ± 0.082.
The substance “Transcriptional activator Myb Q200F, P10242” came in with an abundance fitness of -0.302 ± 0.11.
“Transcriptional activator Myb Q200G, P10242”: the abundance fitness worked out at 0.014 ± 0.049.
In the case of “Transcriptional activator Myb Q200H, P10242”, the abundance fitness turned out to be 0.003 ± 0.13.
Substance “Transcriptional activator Myb Q200I, P10242” yielded an abundance fitness of -0.161 ± 0.11.
Regarding “Transcriptional activator Myb Q200K, P10242”, the abundance fitness stood at 0.002 ± 0.088.
The substance “Transcriptional activator Myb Q200L, P10242” registered an abundance fitness of -0.078 ± 0.067.
Turning to “Transcriptional activator Myb Q200M, P10242”, the abundance fitness is -0.205 ± 0.088.
In turn, “Transcriptional activator Myb Q200N, P10242” came in with an abundance fitness of 0.004 ± 0.11.
For the substance “Transcriptional activator Myb Q200P, P10242”, the abundance fitness came to 0.005 ± 0.1.
As to “Transcriptional activator Myb Q200R, P10242”, the abundance fitness was 0.007 ± 0.048.
For the substance “Transcriptional activator Myb Q200S, P10242”, the abundance fitness was -0.073 ± 0.06.
The substance “Transcriptional activator Myb Q200T, P10242” had an abundance fitness of -0.135 ± 0.072.
Regarding “Transcriptional activator Myb Q200V, P10242”, the abundance fitness was -0.087 ± 0.074.
The substance “Transcriptional activator Myb Q200W, P10242” came in with an abundance fitness of -0.345 ± 0.094.
For the substance “Transcriptional activator Myb Q200Y, P10242”, the abundance fitness was -0.259 ± 0.12.
Next, “Transcriptional activator Myb R153C, P10242”: -0.451 ± 0.098; “Transcriptional activator Myb R153D, P10242”: -0.25 ± 0.095; “Transcriptional activator Myb R153E, P10242”: -0.144 ± 0.079.
“Transcriptional activator Myb R153F, P10242” showed an abundance fitness of -0.068 ± 0.094.
“Transcriptional activator Myb R153I, P10242” returned an abundance fitness of -0.284 ± 0.13.
Next, “Transcriptional activator Myb R153L, P10242”: -0.098 ± 0.073.
In the case of “Transcriptional activator Myb R153M, P10242”, the abundance fitness was -0.11 ± 0.11.
For “Transcriptional activator Myb R153N, P10242”, the abundance fitness was 0.02 ± 0.13.
Turning to “Transcriptional activator Myb R153P, P10242”, the abundance fitness is -1.12 ± 0.18.
Next, “Transcriptional activator Myb R153Q, P10242”: -0.031 ± 0.092.
The substance “Transcriptional activator Myb R153S, P10242” had an abundance fitness of -0.121 ± 0.06.
Next, “Transcriptional activator Myb R153T, P10242”: -0.125 ± 0.14.
“Transcriptional activator Myb R153V, P10242” returned an abundance fitness of -0.199 ± 0.084.
Take “Transcriptional activator Myb R153Y, P10242”: the abundance fitness was -0.084 ± 0.11.
For “Transcriptional activator Myb R176A, P10242”, the abundance fitness was -0.217 ± 0.065.
Next, “Transcriptional activator Myb R176C, P10242”: -0.148 ± 0.12; “Transcriptional activator Myb R176D, P10242”: -0.66 ± 0.14.
“Transcriptional activator Myb R176E, P10242” had an abundance fitness of -0.677 ± 0.11.
Consider “Transcriptional activator Myb R176F, P10242”, for which the abundance fitness was -0.733 ± 0.25.
As to “Transcriptional activator Myb R176G, P10242”, the abundance fitness was -0.728 ± 0.062.
The substance “Transcriptional activator Myb R176H, P10242” yielded an abundance fitness of 0.043 ± 0.16.
As for “Transcriptional activator Myb R176I, P10242”, the abundance fitness is -0.225 ± 0.16.
“Transcriptional activator Myb R176K, P10242” showed an abundance fitness of -0.022 ± 0.097.
For the substance “Transcriptional activator Myb R176L, P10242”, the abundance fitness was -0.423 ± 0.074.
Consider “Transcriptional activator Myb R176M, P10242”, for which the abundance fitness is -0.584 ± 0.11.
“Transcriptional activator Myb R176N, P10242” came in with an abundance fitness of -0.905 ± 0.2.
With “Transcriptional activator Myb R176P, P10242”, the abundance fitness was -0.87 ± 0.15.
Next, “Transcriptional activator Myb R176Q, P10242”: -0.513 ± 0.16; “Transcriptional activator Myb R176S, P10242”: -0.457 ± 0.072; “Transcriptional activator Myb R176T, P10242”: -0.223 ± 0.096.
Next, “Transcriptional activator Myb R176V, P10242”: -0.22 ± 0.066; “Transcriptional activator Myb R176W, P10242”: -0.436 ± 0.064; “Transcriptional activator Myb R176Y, P10242”: -0.651 ± 0.14.
The substance “Transcriptional activator Myb R190A, P10242” showed an abundance fitness of -0.023 ± 0.07.
Consider “Transcriptional activator Myb R190C, P10242”, for which the abundance fitness is -0.117 ± 0.18.
“Transcriptional activator Myb R190D, P10242” displayed an abundance fitness of -0.073 ± 0.13.
In turn, “Transcriptional activator Myb R190E, P10242” registered an abundance fitness of -0.161 ± 0.093.
Regarding “Transcriptional activator Myb R190F, P10242”, the abundance fitness was 0.009 ± 0.13.
Substance “Transcriptional activator Myb R190H, P10242” displayed an abundance fitness of -0.189 ± 0.17.
As to “Transcriptional activator Myb R190I, P10242”, the abundance fitness is -0.265 ± 0.14.
On to “Transcriptional activator Myb R190K, P10242”, for which the abundance fitness turned out to be 0.137 ± 0.12.
On to “Transcriptional activator Myb R190L, P10242”, for which the abundance fitness is -0.131 ± 0.061.
In the case of “Transcriptional activator Myb R190M, P10242”, the abundance fitness was determined as 0.06 ± 0.14.
“Transcriptional activator Myb R190N, P10242” registered an abundance fitness of -0.196 ± 0.19.
Next, “Transcriptional activator Myb R190P, P10242”: -0.335 ± 0.083.
“Transcriptional activator Myb R190Q, P10242” gave an abundance fitness of 0.026 ± 0.12.
“Transcriptional activator Myb R190S, P10242”: the abundance fitness was -0.074 ± 0.065.
Turning to “Transcriptional activator Myb R190T, P10242”, the abundance fitness is -0.131 ± 0.08.
On to “Transcriptional activator Myb R190V, P10242”, for which the abundance fitness was -0.01 ± 0.089.
Next, “Transcriptional activator Myb R190W, P10242”: -0.075 ± 0.11; “Transcriptional activator Myb R190Y, P10242”: -0.461 ± 0.18; “Transcriptional activator Myb R191A, P10242”: 0.036 ± 0.075.
As for “Transcriptional activator Myb R191C, P10242”, the abundance fitness is 0.172 ± 0.15.
In turn, “Transcriptional activator Myb R191D, P10242” gave an abundance fitness of 0.117 ± 0.12.
As for “Transcriptional activator Myb R191E, P10242”, the abundance fitness turned out to be 0.004 ± 0.086.
“Transcriptional activator Myb R191F, P10242” yielded an abundance fitness of -0.164 ± 0.21.
As for “Transcriptional activator Myb R191G, P10242”, the abundance fitness is -0.038 ± 0.068.
In the case of “Transcriptional activator Myb R191I, P10242”, the abundance fitness was -0.136 ± 0.16.
“Transcriptional activator Myb R191K, P10242” returned an abundance fitness of -0.192 ± 0.12.
The substance “Transcriptional activator Myb R191L, P10242” came in with an abundance fitness of -0.058 ± 0.077.
The substance “Transcriptional activator Myb R191M, P10242” yielded an abundance fitness of -0.091 ± 0.13.
As to “Transcriptional activator Myb R191N, P10242”, the abundance fitness was -0.07 ± 0.13.
Take “Transcriptional activator Myb R191P, P10242”: the abundance fitness worked out at 0.047 ± 0.11.
In turn, “Transcriptional activator Myb R191S, P10242” displayed an abundance fitness of -0.052 ± 0.076.
Consider “Transcriptional activator Myb R191T, P10242”, for which the abundance fitness amounted to 0.022 ± 0.14.
Next, “Transcriptional activator Myb R191V, P10242”: 0.017 ± 0.094; “Transcriptional activator Myb R191W, P10242”: -0.017 ± 0.088; “Transcriptional activator Myb R191Y, P10242”: -0.423 ± 0.16.
Substance “Transcriptional activator Myb S146A, P10242” showed an abundance fitness of -0.233 ± 0.15.
In turn, “Transcriptional activator Myb S146F, P10242” returned an abundance fitness of -0.021 ± 0.19.
“Transcriptional activator Myb S146G, P10242” displayed an abundance fitness of -0.159 ± 0.2.
In turn, “Transcriptional activator Myb S146K, P10242” came in with an abundance fitness of -0.344 ± 0.34.
Substance “Transcriptional activator Myb S146L, P10242” displayed an abundance fitness of -0.299 ± 0.43.
